In the supplement of paper PMC9170038:

System: MS2 coat protein
Experiment: apparent KD of MS2 coat protein; designed switch direction (-1 OFF switch, 1 ON switch): -1; higher = weaker reporter binding
Procedure, shortened: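 Designed RNA switches were transcribed on Illumina chips by stalled E. coli RNA polymerase and titrated with SNAP-549-labelled MS2 coat protein from 0.7 or 1.5 nM, doubling to 3 µM. Step length ran from 0.8–1.5 h at the lowest concentration to 10–20 min at the highest. The apparent KD is the median over clusters for each design, from curve-fitted normalised cluster fluorescence.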

[1] = Eterna round: R95, input ligand: microRNA oligo, concentration not stated
[2] = input ligand: microRNA oligo, concentration not stated
[3] = Eterna round: R95, input ligand: FMN 200 uM
[4] = Eterna round: R95, input ligand: none

| Sequence | apparent KD of MS2 coat protein [1] [nM] | apparent KD of MS2 coat protein (input ligand: FMN 200 uM) [nM] | apparent KD of MS2 coat protein (input ligand: none) [nM] | apparent KD of MS2 coat protein [2] [nM] | apparent KD of MS2 coat protein [3] [nM] | apparent KD of MS2 coat protein [4] [nM] |
| --- | --- | --- | --- | --- | --- | --- |
| UUUGUUGUUGUGAGGAUAUCGUAGUUAUUUUGAAACGAGAAGGCACAUGAGGAUCACCCAUGUUUGUUGAUGGU [JR_BMOE4_Sub062] (puzzle: Brourd's mod of Exclusion 4) | 32.4 | – | – | – | – | – |
| CUCGUGUAAGGAUAUACGAGUCACGGAAAUAAAACGUGAAGGUAGAAGGUACAUGAGGAUCACCCAUGUAAAAC [Mod of Anonveat 2 - Jieux - Exclusion 4] (Eterna round: R97, puzzle: Exclusion 4) | – | 209 | 29.8 | – | – | – |
| UGUGCUCUAGGAUAUGCGUAAGCUGAUACGUCAGCAGGUCUACAUGAGGAUCACCCAUGUAGAAGGAGAGUACU [jl-ex2-4.00] (Eterna round: R97, puzzle: Exclusion 2) | – | 18.6 | 20.8 | – | – | – |
| GUCAGCUCGUGAGGAUAUACAUGCGUGCUUCGGCACGAAUUUAAGAUCACAUGAGGAUCACCCAUGUAGAAGGCACGAGCUGAU [ENG2/3-A2] (Eterna round: R96, puzzle: Exclusion NG 2) | – | 366 | 797 | 896 | – | – |
| AAGACUAGAGGAUAUACAUGAGGAUCACCCAUGUAACUGUCAGGUGACUGACGGAAAUGUAGAAGGCUAGUCAA [Mat - Exclusion 3 - JL mod - D81] (Eterna round: R96, puzzle: Exclusion 3) | – | 54.2 | 16.8 | 13.6 | – | – |
| CUGGGUCGUGUUAGGAUAUGCUCUAGAAAGUUAGGGUAGAAGGAACAUGAGGAUCACCCAUGUGACUUCACUAG [BmEX4 B.27] (Eterna round: R97, puzzle: Brourd's mod of Exclusion 4) | – | 23.6 | 15.4 | – | – | – |
| UUUAAUUUUUUUUUUUUACAAGCUUUUUGCUCGUCUUAUACAUGAGGAUCACCCAUGUGGGUAGAAGAUAAAUUAUC [JMF 6] (puzzle: Sensor v3, turn-off variant 2) | 81.8 | – | – | – | 46.4 | 37.4 |
| UUUAAUUUUUUUUUUUUACAAGCUUUUUGCUCGUCUUAUACAUGAGGAUCACCCAUGUGGGUGGGAGAUAAAUUAUC [JMF 24] (puzzle: Sensor v3, turn-off variant 2) | 59.3 | – | – | – | 88.6 | 341 |
| CCUAGUUGGUAAGGAUAUCCUACACUGUUCUGACCCGGGCAUGCUACAUGAGGAUCACCCAUGUGGGAGAAGGUGCGUCAACGC [Design 14] (Eterna round: R96, puzzle: Exclusion NG 2) | – | 36.8 | 30.6 | 19.3 | – | – |
| UUUGAGUUAGGAUAUGCCAAGUUGCACAUGAGGAUCACCCAUGUGAGGUGCCUUACUUAAGCAGAAGGAACAAUAA [EX5 C.13] (Eterna round: R97, puzzle: Exclusion 5) | – | 22.1 | 19.8 | – | – | – |
| GGUUCGAGAGUAAGGAUAUCGGUCUGCGCGAGUGACGAGAAGGUACAUGAGGAUCACCCAUGUCGAGGGAUCAC [Eternabot (L2) Solution 23] (Eterna round: R97, puzzle: Brourd's mod of Exclusion 4) | – | 35.8 | 34.9 | – | – | – |
| AUUGAUAGCACAGGAUAUUGAGAUUUGAAUUGACAAGAAGGGUGUACAUGAGGAUCACCCAUGUAAUGGUUGAGUGGUUGAUUA [JR_ExcNG1_Sub003] (Eterna round: R96, puzzle: Exclusion NG 1) | – | 953 | 1140 | 829 | – | – |
| AGUACUAACACGAUAGUGUUAGUACUAUAAGCUUGUGUUACAUGAGGAUCACCCAUGUCCUCAUAAGCUCGUCUUGA [Mat - Sensor v3 - Turn-off var 2 - D92] (puzzle: Sensor v3, turn-off variant 2) | 467 | – | – | – | 33.3 | 40.6 |
| UAGAAAGGUAAGGAUAUCCUUGAGAAAGAAAGAGGAGAAGGUACCACAUGAGGAUCACCCAUGUGGCUCUCAAA [jl-ex6-4.57 Nando mod] (Eterna round: R97, puzzle: Exclusion 6) | – | 15.2 | 13.7 | – | – | – |
| UUUUACAGGCUUAGAUCCUACAUGAGGAUCACCCAUGUGGAGGCGUGUCGUGAGACAUGCCUCUAAGCUCGUCUUGU [JL TOV1 3.74] (Eterna round: R97, puzzle: Sensor, turn-off variant 1) | – | 86.2 | 103 | – | – | – |
| CAUGUGUAAGGAUAUGACAAUGGUAUCUUCGGAUACCAUUGUCAGAAGGUACAUGAGGAUCACCCAUGUGGAUC [Ex4-3: 20] (puzzle: Exclusion 4) | 222 | – | – | – | – | – |

| Sequence | apparent KD of MS2 coat protein [1] [nM] | apparent KD of MS2 coat protein (input ligand: FMN 200 uM) [nM] | apparent KD of MS2 coat protein (input ligand: none) [nM] | apparent KD of MS2 coat protein [2] [nM] | apparent KD of MS2 coat protein [3] [nM] | apparent KD of MS2 coat protein [4] [nM] |
| --- | --- | --- | --- | --- | --- | --- |
| UCUCGACAUGAGGAUCACCCAUGUCAGGAUAUUGUGUUUUGGGUUUUUUACCUUUUGGCAAGAAGGGAUGUGUG [LRO-Excl1-20] (puzzle: Exclusion 1) | 20.4 | – | – | – | – | – |
| AAAGAGCGAGGAUAUACGUAUCGGUGCGGCCAGCCGAUGUGACAUGAGGAUCACCCAUGUAGAAGGCGCAGAAA [Excls2-IX] (puzzle: Exclusion 2) | 23.4 | – | – | – | – | – |
| AGUUGUUGUUUCCGUUCUUACAUGAGGAUCACCCAUGUUUCUUGUCGUGCUCGCGUUGCUCGUCUGGCUACCUGUUG [salish99_TOv1_r3_068] (puzzle: Sensor v3, turn-off variant 1) | 34 | – | – | – | 33.9 | 43.8 |
| UGCUACAUGAGGAUCACCCAUGUAAUGUGGGAUUCGUUAGGACAGGAUAUGAUUGUAUAGUUUUUUCAGAAGGGUCAUUACUUU [JR_ExcNG3_Sub010] (Eterna round: R96, puzzle: Exclusion NG 3) | – | – | – | 62.9 | – | – |
| GCAGGUCGAGGAUAUACAUGAGGAUCACCCAUGUGGUCACGUGACGAUAGUCACGAAUGUAGAAGGUGACCUGC [E3/3-B2] (Eterna round: R97, puzzle: Exclusion 3) | – | 3.13 | 207 | – | – | – |
| UACAUGAGGAUCACCCAUGUUUUGUCGUGUAUGGUAUUUAUCUAGGAUAUCAUGUUAUUUAGUUAUGAGAAGGAGAAUAUUAAU [JMF's solution 81] (Eterna round: R96, puzzle: Exclusion NG 3) | – | 45.6 | 38.5 | 31.3 | – | – |
| UGAUUUGGAGGAUAUACAUGAGGAUCACCCAUGUAAAGGCCGUGGGUCGAACCCGAGAGUAGAAGGUCGAGAGA [Eternabot (L1) Solution 30] (Eterna round: R97, puzzle: Exclusion 3) | – | 185 | 91.7 | – | – | – |
| AAUACAAGCUAUUGAUCCCACAUGAGGAUCACCCAUGUUCCUGGCCGUGAGGCUAGGUAGACAAUAGCUCGUCUUAU [Sensor-V1 #43] (Eterna round: R97, puzzle: Sensor, turn-off variant 1) | – | 27.9 | 26.4 | – | – | – |
| ACUUGCUAUUUGCUCGUCUUAUUUUUGUUUAUUUACUAUACAUGAGGAUCACCCAUGUUAUAUUUAAGGGUGUGAUA [JR_SV3TOV2_Sub074] (puzzle: Sensor v3, turn-off variant 2) | 334 | – | – | – | 270 | 259 |
| GCUGGUCGAGGAUAUACAUGAGGAUCACCCAUGUGAUUAGCAGUCCUCGGACUGCAAUGUAGAAGGCGACCAGC [E3/2-A1] (Eterna round: R97, puzzle: Exclusion 3) | – | 620 | 439 | – | – | – |
| GUGUAGAUAGGAUAUGCAAGAGUCUAGCGAAGCUAGAUUCUACAUGAGGAUCACCCAUGUAGAAGGGUCUACAC [Fiskers Ex 2 - 29] (puzzle: Exclusion 2) | 17.3 | – | – | – | – | – |
| UAUUAGCAAGCGAGAUCCUACAUGAGGAUCACCCAUGUGCUCGUCUUAUAAGGUACUGUGACGAAAGUCACGGUACC [Eli 91 v36] (Eterna round: R97, puzzle: Sensor, turn-off variant 1) | – | 18.2 | 27.5 | – | – | – |
| ACAUGAGGAUCACCCAUGUCCGGCUGGUCUGUUCCGGCUGUCGAGGAUAUAGUCCGGUGUUCGCGCUAGAAGGUGAGGGCUGGA [Aenatbe mod 45] (Eterna round: R96, puzzle: Exclusion NG 3) | – | 78.9 | 70.1 | 48.6 | – | – |
| CUGUACUAAGGAUAUACAUGAGGAUCACCCAUGUCGAUGGUAGGCUGACCGUGACUCCGUAGAAGGUAGAUUCC [Eternabot (L1) Solution 77] (Eterna round: R97, puzzle: Exclusion 3) | – | 100 | 81.5 | – | – | – |
| CGUACUAAAGUCAGGAUAUUGUCUCGGAUACGAAACAAGAAGGGACAUGAGGAUCACCCAUGUAGAUAGUACGA [Malc #30 mod 5] (puzzle: Brourd's mod of Exclusion 4) | 23.4 | – | – | – | 16.9 | 26.6 |
